Reference: patent publication US8735553 (BEIGENE SWITZERLAND, dated 2014)
Where two headings read alike, the source gives them in different places. Values belong to the binder of their own block, whether it stands above or below them.

Key:
[1] = target: T1, human PD-1 expressed on cells (human, UniProt Q15116 25-288); assay: cell-based or functional assay
[2] = target: T1, human PD-1 expressed on cells; assay: cell-based or functional assay; remark: listed apart in the source
[3] = target: P3Z chimeric PD-1 receptor (human); assay: cell-based or functional assay
[4] = target: P3Z chimeric PD-1 receptor (human); assay: cell-based or functional assay; remark: listed apart in the source
[5] = target: T1, human PD-1 expressed on cells; assay: cell-based or functional assay; remark: listed apart in the source
[6] = target: T1, human PD-1 expressed on cells; assay: cell-based or functional assay; remark: listed apart in the source
[7] = target: T1, human PD-1 expressed on cells; assay: cell-based or functional assay; remark: listed apart in the source
[8] = target: P3Z chimeric PD-1 receptor (human); assay: cell-based or functional assay; remark: listed apart in the source
[9] = target: T1, human PD-1 expressed on cells; assay: FACS on PD-1-expressing cells
[10] = target: T2, PD-1-EC/Fc (human, UniProt Q15116 21-168); assay: SPR (BIAcore T-200), mAb captured on anti-mouse Fc chip, PD-1/Fc injected
T2 construct: AA 1-168 includes the signal peptide; Made in 293-F cells; also called PD-1/Fc
Method: Anti-mouse Fc CM5 biosensor chip (GE Healthcare) was generated using a standard primary amine coupling protocol. […] Association rates (K_a or $kon$) and dissociation rates (K_d or $koff$) were calculated using the one-to-one Langmuir binding model (BIA Evaluation Software, GE Life Sciences). The equilibrium dissociation constant (K_D) was calculated as the ratio $koff/kon$.

[11] = target: T1, human PD-1 expressed on cells; assay: FACS on HuT78/PD-1 cells, MFI against Ab concentration (unit taken from the x axis, µg/ml)
Method: To block human Fc receptors, cells were pre-incubated with human IgG (20 μg/ml) (Cat. No. H11296, LifeHolder, USA and Shanghai, China).
Dose-dependent reaction curve of murine mAbs binding to human PD-1 expressed on live cells by FACS analyses. […] MFI stands for mean fluorescence intensity. HuT78/PD-1 cells were suspended in 96-well plate at 5 ×10^4 cells per well for FACS.

[12] = target: T3, human FcγRIIIA (F158) (human, UniProt P08637 17-254); assay: flow cytometry, FcγR+ HEK293 cells
T3 construct: whole, on cells
Method: (§1) Binding of various IgG4 mutants to FcγRs was determined by flow cytometry. In brief, a series of HEK293 transfectants expressing human FcγRs were established. These transfectants expressed FcγRI, FcγRIIA, FcγRIIB or FcγRIIIA Multi-subunit FcγRs (i.e., FcγR1 and FcγRIIIA) were co-expressed with FcRγ. Polymorphic variants (i.e., FcγRIIA H131 and R131, FcγRIIIA F158 and V158) were also included.

[13] = target: T4, human FcγRIIIA (V158) (human, UniProt P08637 17-254); assay: flow cytometry, FcγR+ HEK293 cells
T4 construct: whole, on cells; also called CD16 (V158 allele)
Method: as §1

[14] = target: T5, human FcγRI (human, UniProt P12314 16-374); assay: flow cytometry, FcγR+ HEK293 cells
T5 construct: whole, on cells; also called FcγR1
Method: as §1

[15] = target: T5, human FcγRI; assay: flow cytometry, FcγR+ HEK293 cells; remark: listed apart in the source
Method: as §1

[16] = target: T6, human FcγRIIA (H131) (human, UniProt P12318 34-317); assay: flow cytometry, FcγR+ HEK293 cells
T6 construct: whole, on cells
T6 sequence (looked up): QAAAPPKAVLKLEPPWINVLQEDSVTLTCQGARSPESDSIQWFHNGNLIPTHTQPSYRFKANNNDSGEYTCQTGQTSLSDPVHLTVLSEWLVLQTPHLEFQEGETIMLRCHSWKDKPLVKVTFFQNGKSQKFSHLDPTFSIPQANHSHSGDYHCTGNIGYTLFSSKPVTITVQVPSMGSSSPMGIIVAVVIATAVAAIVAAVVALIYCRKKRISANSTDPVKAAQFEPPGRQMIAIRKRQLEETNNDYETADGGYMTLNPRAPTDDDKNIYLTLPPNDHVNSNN
Method: as §1

[17] = target: T7, human FcγRIIA (R131) (human, UniProt P12318 34-317); assay: flow cytometry, FcγR+ HEK293 cells
T7 construct: whole, on cells
T7 sequence (looked up): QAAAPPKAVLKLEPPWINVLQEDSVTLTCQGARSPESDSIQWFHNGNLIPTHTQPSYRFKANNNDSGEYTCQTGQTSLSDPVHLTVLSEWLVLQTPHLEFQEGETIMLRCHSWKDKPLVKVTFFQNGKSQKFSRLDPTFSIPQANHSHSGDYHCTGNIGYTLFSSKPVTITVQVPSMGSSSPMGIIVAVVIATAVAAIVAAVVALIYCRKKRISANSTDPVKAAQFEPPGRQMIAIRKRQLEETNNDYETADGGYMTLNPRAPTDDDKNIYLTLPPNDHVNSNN
Method: as §1

[18] = target: T3, human FcγRIIIA (F158); assay: flow cytometry, FcγR+ HEK293 cells; remark: listed apart in the source
Method: as §1

[19] = target: T1, human PD-1 expressed on cells; assay: cell-based or functional assay; remark: listed apart in the source
[20] = target: P3Z chimeric PD-1 receptor (human); assay: cell-based or functional assay; remark: listed apart in the source
[21] = target: T1, human PD-1 expressed on cells; assay: FACS on PD-1-expressing cells, goat anti-human IgG detection

T3 sequence (P08637 17-254): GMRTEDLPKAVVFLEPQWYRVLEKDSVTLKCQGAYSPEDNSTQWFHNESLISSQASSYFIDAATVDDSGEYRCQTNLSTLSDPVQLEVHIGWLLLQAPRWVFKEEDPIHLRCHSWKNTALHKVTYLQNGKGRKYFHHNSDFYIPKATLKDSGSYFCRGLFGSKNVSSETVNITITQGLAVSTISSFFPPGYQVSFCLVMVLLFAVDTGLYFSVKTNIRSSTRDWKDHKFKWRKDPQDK
T2 sequence (Q15116 21-168 limits assumed): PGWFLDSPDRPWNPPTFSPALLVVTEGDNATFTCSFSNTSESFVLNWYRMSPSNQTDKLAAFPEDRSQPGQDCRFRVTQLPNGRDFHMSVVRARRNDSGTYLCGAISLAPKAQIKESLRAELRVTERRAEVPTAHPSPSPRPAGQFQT
T5 sequence (P12314 16-374): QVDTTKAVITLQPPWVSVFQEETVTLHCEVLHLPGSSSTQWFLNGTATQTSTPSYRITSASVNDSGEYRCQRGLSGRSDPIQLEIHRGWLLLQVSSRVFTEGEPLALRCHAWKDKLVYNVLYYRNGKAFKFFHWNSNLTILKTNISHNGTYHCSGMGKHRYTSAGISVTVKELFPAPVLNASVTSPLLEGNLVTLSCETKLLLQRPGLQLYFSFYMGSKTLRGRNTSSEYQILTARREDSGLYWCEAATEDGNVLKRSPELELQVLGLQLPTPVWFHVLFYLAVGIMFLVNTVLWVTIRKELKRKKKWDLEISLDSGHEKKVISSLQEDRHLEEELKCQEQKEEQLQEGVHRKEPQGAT
T1 sequence (Q15116 25-288): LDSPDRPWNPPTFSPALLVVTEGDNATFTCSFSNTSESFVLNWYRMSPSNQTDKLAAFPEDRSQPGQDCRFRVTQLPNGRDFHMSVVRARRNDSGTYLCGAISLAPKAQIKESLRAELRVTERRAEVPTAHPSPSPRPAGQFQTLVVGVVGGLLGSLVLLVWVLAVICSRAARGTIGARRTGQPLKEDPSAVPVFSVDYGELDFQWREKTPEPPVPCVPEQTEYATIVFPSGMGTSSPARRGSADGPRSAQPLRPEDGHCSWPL
P3Z chimeric PD-1 receptor (human), sequence (chain, as listed by the source mutant limits assumed): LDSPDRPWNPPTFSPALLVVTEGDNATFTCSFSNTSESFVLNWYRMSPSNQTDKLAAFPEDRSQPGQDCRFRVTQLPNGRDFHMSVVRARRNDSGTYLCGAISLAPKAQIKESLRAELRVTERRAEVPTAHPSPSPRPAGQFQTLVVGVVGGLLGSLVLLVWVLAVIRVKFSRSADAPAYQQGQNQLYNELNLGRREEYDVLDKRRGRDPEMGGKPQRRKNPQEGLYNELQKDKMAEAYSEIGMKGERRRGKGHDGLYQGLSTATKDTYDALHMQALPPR
T4 sequence (P08637 17-254 F176V limits assumed): as the sequence (P08637 17-254) above, with F160V counted along it

IL-2 release, EC50 (HuT78/PD-1 + HEK293/OS8/PD-L1) [1]: 0.053 µg/mL | IL-2 release, EC50 (HuT78/PD-1 + HEK293/OS8/PD-L2) [2]: 0.038 µg/mL | Inhibition of IL-2 secretion, IC50 (HuT78/P3Z + HEK293/PD-L1) [3]: 0.039 µ/ml | Inhibition of IL-2 secretion, IC50 (HuT78/P3Z + HEK293/PD-L2) [4]: 0.018 µg/mL | IFN-γ secreted, EC50 (NK92MI/PD-1 + SK-MES-1/PD-L1) [5]: 0.2 µg/mL | Assay-1 IL-2 release, EC50 (HuT78/PD-1 + HEK293/OS8/PD-L1) [7]: 0.038 µg/mL | Assay-1 IL-2 release, Top line (HuT78/PD-1 + HEK293/OS8/PD-L1) [7]: 1150 pg/mL | Assay-2 IL-2 release, IC50 (HuT78/P3Z + HEK293/PD-L1) [8]: 0.14 µg/mL | Assay-2 IL-2 release, Max inhibition (HuT78/P3Z + HEK293/PD-L1) [8]: 96.9% | EC50 [9]: 0.126 µg/mL | Top MFI [9]: 195 MFI | Kd [10]: 324 pM | koff [10]: 7.79e-05 s⁻¹ | kon [10]: 240000 M⁻¹ s⁻¹ | EC50 [11]: 0.126 µg/mL
B1: murine mAb 326 (antibody, V domains shown)
VH: QIQLVQSGPELKKPGETVKISCKASGYTFTNYGMNWVKQAPGKGLKWMGWINNNNGEPTYAEEFKGRFAFSLETSASTAYLQINNLKNEDTATYFCARDVMDYWGQGTSVTVSS
VL: DIVLTQSPASLAVSLGQRATISCRASESVDNYGYSFMHWYQQKPGQPPQLLIYRASNLESGIPARFSGSGSRTGFTLTINPVEADDVATYYCQQSKEYPTFGGGTKLEVK
notes: Murine hybridoma antibody; also called mu326
Cytotoxicity of NK92MI/PD-1 cells against SK-MES-1/PD-L1, EC50 [6]: 0.37 µg/mL

binding result [12]: no binding | binding result [13]: no binding | binding result [14]: no binding
B2: hu326-4A3/IgG4mt10 (antibody)
heavy: QVQLVQSGSELKKPGASVKVSCKASGYTFTNYGMNWVRQAPGQGLKWMGWINNNNAEPTYAQDFRGRFVFSLDTSASTAYLQISSLKTEDTAVYYCARDVMDYWGQGTLVTVSSASTKGPSVFPLAPCSRSTSESTAALGCLVKDYFPEPVTVSWNSGALTSGVHTFPAVLQSSGLYSLSSVVTVPSSSLGTKTYTCNVDHKPSNTKVDKRVESKYGPPCPPCPAPPVAGGPSVFLFPPKPKDTLMISRTPEVTCVVVAVSQEDPEVQFNWYVDGVEVHNAKTKPREEQFNSTYRVVSVLTVVHQDWLNGKEYKCKVSNKGLPSSIEKTISKAKGQPREPQVYTLPPSQEEMTKNQVSLTCLVKGFYPSDIAVEWESNGQPENNYKTTPPVLDSDGSFFLYSKLTVDKSRWQEGNVFSCSVMHEALHNHYTQKSLSLSLGK
VL: DIVLTQSPASLAVSPGQRATITCRASESVDNYGYSFMHWYQQKPGQPPKLLIYRASNLESGVPARFSGSGSGTDFTLTINPVEAEDTANYYCQQSKEYPTFGGGTKVEIK
notes: Light chain constant region not restated for this format; copies: 2 + 2

MFI [15]: 1 MFI
B3: hu317-4B6/IgG4mt6 (antibody)
heavy: QVQLQESGPGLVKPSETLSLTCTVSGFSLTSYGVHWIRQPPGKGLEWIGVIYADGSTNYNPSLKSRVTISKDTSKNQVSLKLSSVTAADTAVYYCARAYGNYWYIDVWGQGTTVTVSSASTKGPSVFPLAPCSRSTSESTAALGCLVKDYFPEPVTVSWNSGALTSGVHTFPAVLQSSGLYSLSSVVTVPSSSLGTKTYTCNVDHKPSNTKVDKRVESKYGPPCPPCPAPPVAGGPSVFLFPPKPKDTLMISRTPEVTCVVVAVSQEDPEVQFNWYVDGVEVHNAKTKPREEQFNSTYRVVSVLTVLHQDWLNGKEYKCKVSNKGLPSSIEKTISKAKGQPREPQVYTLPPSQEEMTKNQVSLTCLVKGFYPSDIAVEWESNGQPENNYKTTPPVLDSDGSFFLYSRLTVDKSRWQEGNVFSCSVMHEALHNHYTQKSLSLSLGK
VL: DIVMTQSPDSLAVSLGERATINCKSSESVSNDVAWYQQKPGQPPKLLINYAFHRFTGVPDRFSGSGYGTDFTLTISSLQAEDVAVYYCHQAYSSPYTFGQGTKLEIK
notes: as for B2

MFI [16]: 1 MFI | MFI [17]: 0.8 MFI | MFI [18]: 0.9 MFI
B4: hu317-1/IgG4mt6 (antibody)
heavy: QVQLQESGPGLVKPSETLSLTCTVSGFSLTSYGVHWIRQPPGKGLEWLGVIWAGGSTNYNPSLKSRLTISKDNSKSQVSLKMSSVTAADTAVYYCARAYGNYWYIDVWGQGTTVTVSSASTKGPSVFPLAPCSRSTSESTAALGCLVKDYFPEPVTVSWNSGALTSGVHTFPAVLQSSGLYSLSSVVTVPSSSLGTKTYTCNVDHKPSNTKVDKRVESKYGPPCPPCPAPPVAGGPSVFLFPPKPKDTLMISRTPEVTCVVVAVSQEDPEVQFNWYVDGVEVHNAKTKPREEQFNSTYRVVSVLTVLHQDWLNGKEYKCKVSNKGLPSSIEKTISKAKGQPREPQVYTLPPSQEEMTKNQVSLTCLVKGFYPSDIAVEWESNGQPENNYKTTPPVLDSDGSFFLYSRLTVDKSRWQEGNVFSCSVMHEALHNHYTQKSLSLSLGK
VL: DIVMTQSPDSLAVSLGERATINCKASQSVSNDVAWYQQKPGQPPKLLINYAFHRFTGVPDRFSGSGYGTDFTLTISSLQAEDVAVYYCHQAYSSPYTFGGGTKLEIK
notes: as for B2

binding result [12]: no binding | binding result [13]: no binding | binding result [14]: no binding
B5: hu317-4B6/IgG4mt10 (antibody)
heavy: QVQLQESGPGLVKPSETLSLTCTVSGFSLTSYGVHWIRQPPGKGLEWIGVIYADGSTNYNPSLKSRVTISKDTSKNQVSLKLSSVTAADTAVYYCARAYGNYWYIDVWGQGTTVTVSSASTKGPSVFPLAPCSRSTSESTAALGCLVKDYFPEPVTVSWNSGALTSGVHTFPAVLQSSGLYSLSSVVTVPSSSLGTKTYTCNVDHKPSNTKVDKRVESKYGPPCPPCPAPPVAGGPSVFLFPPKPKDTLMISRTPEVTCVVVAVSQEDPEVQFNWYVDGVEVHNAKTKPREEQFNSTYRVVSVLTVVHQDWLNGKEYKCKVSNKGLPSSIEKTISKAKGQPREPQVYTLPPSQEEMTKNQVSLTCLVKGFYPSDIAVEWESNGQPENNYKTTPPVLDSDGSFFLYSKLTVDKSRWQEGNVFSCSVMHEALHNHYTQKSLSLSLGK
VL: DIVMTQSPDSLAVSLGERATINCKSSESVSNDVAWYQQKPGQPPKLLINYAFHRFTGVPDRFSGSGYGTDFTLTISSLQAEDVAVYYCHQAYSSPYTFGQGTKLEIK
notes: as for B2

Assay-1 IL-2 release, EC50 (HuT78/PD-1 + HEK293/OS8/PD-L1) [19]: 0.08 µg/mL | Assay-1 IL-2 release, Top line (HuT78/PD-1 + HEK293/OS8/PD-L1) [19]: 294 pg/mL | Assay-2 IL-2 release, IC50 (HuT78/P3Z + HEK293/PD-L1) [20]: 0.1 µg/mL | Assay-2 IL-2 release, Max inhibition (HuT78/P3Z + HEK293/PD-L1) [20]: 99% | EC50 [21]: 0.36 µg/mL
B6: ch317 (antibody, human IgG2, V domains shown, not shown: a dimerising Fc or GST)
VH: QVQLKESGPGLVAPSKNLSITCTVSGFSLTSYGVHWIRQPPGKGLEWLGVIWAGGSTNYNSALMSRLSISKDNSRSQVFLRMNSLQTDDTAMYYCARAYGNYWYIDVWGAGTTVTVSS
VL: DIVMTQTPKFLLVSAGDRVTITCKASQSVSNDVAWYQQKPGQSPKLLINYAFHRFTGVPDRFTGSGYGTDFIFTISTVQAEDLAVYFCHQAYSSPYTFGGGTKLEMKR
notes: domain: Ig kappa C-region; Murine VH and Vκ of mu317 on human IgG2 / kappa

Assay-1 IL-2 release, EC50 (HuT78/PD-1 + HEK293/OS8/PD-L1) [19]: 0.09 µg/mL | Assay-1 IL-2 release, Top line (HuT78/PD-1 + HEK293/OS8/PD-L1) [19]: 386 pg/mL | Assay-2 IL-2 release, IC50 (HuT78/P3Z + HEK293/PD-L1) [20]: 0.11 µg/mL | Assay-2 IL-2 release, Max inhibition (HuT78/P3Z + HEK293/PD-L1) [20]: 99.8% | EC50 [21]: 0.46 µg/mL
B7: hu317-1 (antibody, IgG2, V domains shown, not shown: a dimerising Fc or GST)
VH: QVQLQESGPGLVKPSETLSLTCTVSGFSLTSYGVHWIRQPPGKGLEWLGVIWAGGSTNYNPSLKSRLTISKDNSKSQVSLKMSSVTAADTAVYYCARAYGNYWYIDVWGQGTTVTVSS
VL: DIVMTQSPDSLAVSLGERATINCKASQSVSNDVAWYQQKPGQPPKLLINYAFHRFTGVPDRFSGSGYGTDFTLTISSLQAEDVAVYYCHQAYSSPYTFGGGTKLEIKR
notes: domain: Ig kappa C-region; Initial humanized version, IgG2 / kappa
